Columns and labels:
[1] = biological target: filamentous actin (F-actin) polymerized from G-actin purified from rabbit skeletal muscle (rabbit) (UniProt P68135)
[2] = biological target: filamentous actin (F-actin) polymerized from G-actin purified from rabbit skeletal muscle (rabbit) (UniProt P68135); remark: listed apart in the source

| Substance | percent activation of localisation to F-actin (0% inactive optoCAST, 100% ABM only) in live HeLa cells under blue light [1] [%] | percent activation of localisation to F-actin (0% inactive pepCAST, 100% ABM only) in live HeLa cells that co-express SZ21 [2] [%] |
| --- | --- | --- |
| ABS optoCAST (ABS opto1: mCherry-AsLOV2(403-540)-ABS) (from UniProt O49003 403-540) (designed binder) | 80 |  |
| ABS pepCAST (ABS pep6: SZ3-linker-ABS-linker-SZ4-eGFP) (designed binder) |  | > 80 |
